Target: HLA-A*0201 (human), A*02:0
Experiment: REVEAL MHC binding assay (ProImmune)

FLYGVILTV (modifications not checked) [Peptide ID 131 … (TCR_TV, modified peptide)]
% Pass/fail control (% of pass/fail control): 257

Source: patent US20110142842A1, “POLYPEPTIDES” (Medinnova AS, priority 2007, published 2011)
